Laboratory results as given in article PMC6051995.

Biological target: vinculin (UniProt P18206)
Test: FLAG IP, LC-MS/MS spectral counting
Conditions: reference: FLAG-EZH2 wild type; sites T367

EZH2 (from UniProt Q15910) FLAG-EZH2 T367A
binding against the reference: weaker
